Results reported in patent US10962528B2, “Blue fluorescent protein monomers and uses thereof” (WISYS TECHNOLOGY FOUNDATION, INC., priority 2015, dated 2021).
Residue numbers refer to the chain shown, from its start. In names and notes the source's numbering stands.

B1: Wild-type SFP: Sandercyanin fluorescent protein from walleye Sander vitreus mucus, biliverdin-binding lipocalin tetramer; SEQ ID NO:1 (recombinant SEQ ID NO:31) (protein, listed as Sander vitreus)
chain: MNAIQVISLTLLSVLAAKAMFIKPGRCPKPAVQEDFDAARYLGVWYDIQRLPNKFQKGECATATYSLSPGVGFSVFNRERLANGTIKSVIGSAIAEDPCEPAKLQFFHENAAPVPYWVLSTDYDNYALVYSCINLGASHAAYASIVSRQPTLPEETIKKLQGTMSSFGVGVDTLLTTNQDAAYCSAMAQ
modifications: biliverdin chromophore
B2: SFP-FH88insGG: L135E monoSFP extended with glycine residues at position 88, SEQ ID NO:5 (protein)
chain: MFIKPGRCPKPAVQEDFDAARYLGVWYDIQRLPNKFQKGECATATYSLSPGVGFSVFNRERLANGTIKSVIGSAIAEDPCEPAKLQFGGFHENAAPVPYWVLSTDYDNYALVYSCINEGASHAAYASIVSRQPTLPEETIKKLQGTMSSFGVGVDTLLTTNQDAAYCSAMNQ
B3: SFP-VP95insGG: L135E monoSFP extended with glycine residues at position 95, SEQ ID NO:6 (protein)
chain: MFIKPGRCPKPAVQEDFDAARYLGVWYDIQRLPNKFQKGECATATYSLSPGVGFSVFNRERLANGTIKSVIGSAIAEDPCEPAKLQFFHENAAPGGVPYWVLSTDYDNYALVYSCINSFEGASHAAYASIVSRQPTLPEETIKKLQGTMSSFGVGVDTLLTTNQDAAYCSAMNQ
B4: SFP-V71E: monomeric SFP variant V71E, SEQ ID NO:2 (protein)
chain: FIKPGRCPKPAVQEDFDAARYLGVWYDIQRLPNKFQKGECATATYSLSPGEGFSVFNRERLANGTIKSVIGSAIAEDPCEPAKLQFFHENAAPVPYWVLSTDYDNYALVYSCINLGASHAAYASIVSRQPTLPEETIKKLQGTMSSFGVGVDTLLTTNQDAAYCSAMNQ
B5: SFP-L135E: monomeric SFP variant L135E, SEQ ID NO:3 (protein)
chain: B4 chain with E51V, L115E
B6: SFP-A137E: monomeric SFP variant A137E, SEQ ID NO:4 (protein)
chain: B4 chain with E51V, A117E

Key:
[1] = Photobleaching / photo-stability studies; assay type: physicochemical
Procedure: FIGS. 11C-11D (C) Titration of apo-SFP (20 uM) with BV IXα measured at 675 nm with λex=375 nm (green) and 630 nm (red). (D) Photo-bleaching kinetics of Sandercyanin and free-biliverdin (BV).
(§1) All experiments were performed with purified SFP samples (apo and holo forms) at pH 7.5 and room temperature. UV-Visible absorbance spectra of native and recombinant SFP were recorded from 800 to 200 nm with ultraspec 2100 pro spectrophotometer from Amersham Biosciences. CD spectra were measured on JASCO J-815 Spectropolarimeter. Steady state fluorescence, excitation, binding and photobleaching studies were monitored on Horiba Jobin Yvon Fluoromax-4 fluorimeter. Data analysis were done using Origin6 and Origin8 software. Hydrogen was exchanged with Deuterium by increasing concentrations of D2O to a standard protein concentration. Deuteriated proteins were prepared in the same buffer, incubated for 15 minutes, and monitored for spectral properties.

[2] = Fluorescence of free biliverdin in different solvent conditions; assay type: physicochemical; settings: increased hydrophobicity of the medium
Excerpt: FIG. 11F Effect of hydrophobicity of solvent on fluorescence spectra of biliverdin monitored at excitation wavelengths of (left) 375 nm and (right) 600 nm. Labels are biliverdin in DMSO 1150, biliverdin in acetone 1152, biliverdin in ethanol 1154, biliverdin in benzene 1156, and biliverdin in toluene 1158.
FIG. 11G Effect of viscosity of solvent (PEG 400) on fluorescence spectra of biliverdin monitored at excitation wavelengths of (left) 375 nm and (right) 600 nm. Labels are 0% PEG400 1160, 5% PEG400 1162, 10% PEG400 1164, and 15% PEG400 1166.
We performed experiments with free biliverdin in different solvents conditions, to understand the molecular basis of the observed fluorescent properties of Sandercyanin-BV complex. […] A similar trend was observed on increasing the viscosity of medium with increased polyethylene glycol and changing the pH of medium to pH 8.8-9.5.

apoSFP = experiment: Binding of apoSFP with other tetrapyrroles monitored by fluorescence; design: species or system Sander vitreus; settings: excitation at 375 nm and 630 nm
Excerpt: FIG. 11E Binding of apoSFP with other tetrapyrroles monitored by fluorescence on excitation at (left) 375 nm and (right) 630 nm.
To examine the specificity of Sandercyanin to bilverdin IXa, we tested other BV-like tetrapyrrol compounds: hemin, bilirubin, and esterified BV derivatives.

[3] = Steady state fluorescence spectra and quantum yield; assay type: physicochemical; settings: for Quantum yield / Ex/Em1, emission / Ex/Em1, excitation: in complex with biliverdin; for brightness relative to L135E monoSFP: glycine loop extension
Procedure: as §1
Characterization of monoSFP Variants—MonoSFP variants were characterized by size-exclusion chromatography during purification of the proteins. We further characterized the spectral properties and binding-efficiencies of a few of these monoSFPs (Tables 2 and 4), and found them to be similar to wild-type SFP (FIG. 2, FIG. 3, Table 4). They have far-red to near infra-red fluorescence with large Stokes shift. […] To test this, we performed detergent (Triton X-100) assays with the monoSFPs and measured absorbance and fluorescence spectra. Further, we made attempts to extend one of the loops which encloses biliverdin in the centre of the protein. Two mutants, FH88insGG and VP95insGG, were extended with glycine residues at the 88th and 95th positions in the amino acid chain of L135E monoSFP mutant. One hypothesis was that extension would prevent photon loss due to solvent exposure of the ligand and enhance the quantum efficiency.

[4] = UV-Visible absorbance spectra; assay type: physicochemical
Procedure: as §1, with “All experiments were performed with purified SFP samples (apo and holo forms) at pH 7.5 and room temperature.” left out

[5] = excitation at 380 nm and 630 nm, Yu et al. 2008; cited from earlier work
[6] = Biliverdin binding of SFP and monomeric variants (fluorescence titration, UV-visible absorbance)
Procedure: as §1
All SFP variants were expressed using E. coli BL21*(DE3) cells. […] Thus, refolded purified SFP was checked using an analytical gel filtration column for oligomerization state and biliverdin (BV) binding by UV-visible absorbance and fluorescence spectroscopy (FIGS. 1A-1D).
Characterization of monoSFP Variants—MonoSFP variants were characterized by size-exclusion chromatography during purification of the proteins. […] They have far-red to near infra-red fluorescence with large Stokes shift. […] To test this, we performed detergent (Triton X-100) assays with the monoSFPs and measured absorbance and fluorescence spectra. […]

| Molecule | Quantum yield [3] | Ex/Em1, emission ([3]; UV/blue excitation) | Ex/Em1, excitation ([3]; UV/blue excitation) | Ex/Em1, emission ([3]; red excitation) | Ex/Em1, excitation ([3]; red excitation) | further results |
| --- | --- | --- | --- | --- | --- | --- |
| C=CC1=C(C)/C(=C/C2=NC(=C\c3[nH]c(/C=C4\NC(=O)C(C)=C4C=C)c(C)c3CCC(=O)O)/C(CCC(=O)O)=C2C)NC1=O [Biliverdin, Biliverdin IXα, reference compound] | – | – | – | – | – | bleaching of free form relative to complex with Sandercyanin [1]: bleaches faster; far red fluorescence of free biliverdin [2]: enhanced far red fluorescence |
| C=CC1=C(C)c2cc3[n-]c(cc4[n-]c(cc5nc(cc1n2)C(C)=C5C=C)c(C)c4CCC(=O)O)c(CCC(=O)O)c3C.[Cl-].[Fe+3] [hemin] | – | – | – | – | – | binding and fluorescence with Sandercyanin (apoSFP): does not show binding and fluorescence |
| B1 | 0.016 | 675 nm | 375 nm | 675 nm | 630 nm | photo-stability of fluorescence ([1]; overnight exposure with UV or red light): does not bleach significantly; bleaching of fluorescence ([1]; walleye mucous cells and solution, several hours of excitation and emission): do not bleach; excitation maxima [3]: 375 nm; fluorescence intensity with D2O ([3]; increasing concentrations of D2O, no changes in the absorbance): increased fluorescence intensity; Molar extinction coefficient at 375 nm ([4]; phosphate buffer of pH 7.4, 375 nm): 21,000 M^−1 cm^−1; Molar extinction coefficient at 630 nm ([4]; phosphate buffer of pH 7.4, 630 nm): 13,500 M^−1 cm^−1; emission maxima [5]: 678 nm |
| B2 | 0.002 | 663 nm | 380 nm | 653 nm | 570 nm | brightness relative to L135E monoSFP [3]: did not show significantly increased brightness; binding to biliverdin [6]: retained binding to biliverdin |
| B3 | 0.003 | 657 nm | 380 nm | 653 nm | 570 nm | brightness relative to L135E monoSFP [3]: did not show significantly increased brightness; binding to biliverdin [6]: retained binding to biliverdin |
| B4 | 0.003 | 670 nm | 380 nm | 660 nm | 600 nm | – |
| B5 | 0.025 | 682 nm | 380 nm | 676 nm | 600 nm | – |
| B6 | 0.003 | 663 nm | 380 nm | 653 nm | 580 nm | – |
